{"source": "paper PMC2694229", "tested_on": "PCBP2", "experiment": "competition EMSA", "note": "pKd: −log10 of the molar value.", "data": [{"substance": "poliovirus stem-loop IV RNA", "values": [{"measurement": "pKd", "result": 7.82}]}]}
